Among the data in paper PMC9666628 (Nature Communications, 2022) are Kd values, retold here.

Residue numbers refer to the chain shown, from its start. Values joined by “and” are separate entries in the source; they are usually repeats but may differ in a detail not shown here. Identical values can stand only once.

Common to all, as to experiment: fluorescence polarisation; 0.5 nM FITC-labeled peptide, chromodomain serially diluted (wild types 200-0.2 µM; Cbx7.V1 and Cbx.VDs 50 µM-50 nM); 25 °C, 30 min; 25 mM HEPES pH 7.5, 150 mM NaCl, 1 mM DTT, 0.01% TritonX-100; one-site total binding model; values of single replicates
Details in all cases: both partners purified
A general note: Fluorescence polarisation rises when a labelled molecule tumbles more slowly, as on binding a larger partner.

Assay [1] deals with T1, wild-type Cbx7 chromodomain (human, UniProt O95931 7-66).
T1 construct: chromodomain of human Cbx7; also called Cbx7.wt; source: E. coli BL21(DE3), purified (Ni-NTA), tags removed with TEV protease
T1 sequence: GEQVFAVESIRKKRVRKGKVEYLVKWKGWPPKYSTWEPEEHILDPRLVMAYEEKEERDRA

A further assay concerns the target T2, Cbx7 chromodomain Q9D (human, UniProt O95931 7-66, Q9D).
T2 construct: chromodomain of human Cbx7; residues numbered on full-length Cbx7; also called Cbx7 Q9D; source: E. coli BL21(DE3), purified (Ni-NTA), tags removed with TEV protease
T2 sequence: T1 sequence with Q3D

The target of the next assay is T3, Cbx7 chromodomain K33E (human, UniProt O95931 7-66, K33E).
T3 construct: chromodomain of human Cbx7; residues numbered on full-length Cbx7; also called Cbx7 K33E; source: E. coli BL21(DE3), purified (Ni-NTA), tags removed with TEV protease
T3 sequence: T1 sequence with K27E

Assay [2] deals with T4, Cbx7.V1 chromodomain variant (tags removed, used for FP) (human, UniProt O95931 7-66, E8D (printed as the back-mutation D8E) | Q9D | V10I (printed as the …)).
T4 construct: chromodomain of human Cbx7 with the six substitutions of the phage-selected variant V1; residues numbered on full-length Cbx7; source: E. coli BL21(DE3), purified (Ni-NTA), tags removed with TEV protease
T4 sequence: T1 sequence with E2D, Q3D, V4I, K27E, P31L, K32E

Assay [3] deals with T5, Cbx7 chromodomain with the double substitution Q9D/K33E (human, UniProt O95931 7-66, Q9D | K33E).
T5 construct: chromodomain of human Cbx7; residues numbered on full-length Cbx7; also called Cbx7.VD; source: E. coli BL21(DE3), purified (Ni-NTA), tags removed with TEV protease
T5 sequence: T1 sequence with Q3D, K27E

The target of assay [4] is T1, wild-type Cbx7 chromodomain. This is another data set of the same source.
Assay [5] deals with T5, Cbx7 chromodomain with the double …. The source holds these as a separate data set.
Assay [6] deals with T6, wild-type Cbx1 chromodomain (human, UniProt P83916 20-73).
T6 construct: chromodomain of human Cbx1; also called Cbx1.wt; source: E. coli BL21(DE3), purified (Ni-NTA), tags removed with TEV protease

For assay [7], the target named is T7, wild-type Cbx5 chromodomain (human, UniProt P45973 18-75).
T7 construct: chromodomain of human Cbx5; also called Cbx5.wt; source: E. coli BL21(DE3), purified (Ni-NTA), tags removed with TEV protease

In assay [8] the target is T8, wild-type Cbx2 chromodomain (human, UniProt Q14781 9-62).
T8 construct: chromodomain of human Cbx2; also called Cbx2.wt; source: E. coli BL21(DE3), purified (Ni-NTA), tags removed with TEV protease
T8 sequence: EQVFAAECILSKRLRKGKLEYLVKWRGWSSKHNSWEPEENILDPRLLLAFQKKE

T6 sequence (P83916 20-73, looked up): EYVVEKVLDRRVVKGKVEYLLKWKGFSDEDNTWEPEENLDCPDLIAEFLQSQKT
T7 sequence (P45973 18-75, looked up): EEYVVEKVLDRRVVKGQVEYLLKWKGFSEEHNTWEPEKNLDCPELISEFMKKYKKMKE

B1: H3K9me3 peptide, FITC-labeled (peptide)
chain: ARTKQTARKSTGGKAPR
modifications: trimethyl-lysine at K9; fluorescein isothiocyanate (FITC) at the N-terminus
As for B1, the Kd in [1] is 41 µM and 27 µM and 23 µM; with Cbx7 chromodomain Q9D, 11 µM and 9.7 µM and 9.4 µM; in the assay with Cbx7 chromodomain K33E, 24 µM and 18 µM and 19 µM; in assay [2], 7.5 µM and 5.7 µM and 7.8 µM; in [3], 8.4 µM and 7.4 µM and 8.2 µM; in assay [4], 33.5 µM and 37 µM and 23 µM. Further, the Kd in [5] was 8.6 µM and 7.5 µM; in [6], 0.453 µM and 0.543 µM and 0.529 µM; in [7], 5.6 µM and 5 µM and 4.8 µM.

B2: H3K27me3 peptide, FITC-labeled (peptide)
chain: KQLATKAARKSAPATGGVK
modifications: trimethyl-lysine at K27; fluorescein isothiocyanate (FITC) at the N-terminus
For B2, the Kd in assay [1] is 115 µM and 79 µM and 143 µM; with Cbx7 chromodomain Q9D it was 115 µM and 101 µM and 84 µM; in the assay with Cbx7 chromodomain K33E, 17.5 µM and 21 µM and 19 µM; in [2], 4.5 µM and 3.9 µM and 3.4 µM; in assay [3], 5.1 µM and 4.7 µM and 5.2 µM; in assay [4], 138 µM and 84 µM and 109 µM. In addition, the Kd in assay [5] is 4.8 µM and 5.2 µM; in assay [8], 117 µM and 101 µM and 84 µM.

For orientation: Kd means a measure of binding affinity in units of concentration. A higher Kd goes with lower affinity.
